Target: recombinant full-length HSP70 in fusion with N-terminal maltose binding protein (MBP) (UniProt P0DMV8 1-641)
Assay: SPR

Sequence of recombinant full-length HSP70 in fusion with N-terminal maltose binding protein (MBP) (P0DMV8 whole entry, the tested form may be a part): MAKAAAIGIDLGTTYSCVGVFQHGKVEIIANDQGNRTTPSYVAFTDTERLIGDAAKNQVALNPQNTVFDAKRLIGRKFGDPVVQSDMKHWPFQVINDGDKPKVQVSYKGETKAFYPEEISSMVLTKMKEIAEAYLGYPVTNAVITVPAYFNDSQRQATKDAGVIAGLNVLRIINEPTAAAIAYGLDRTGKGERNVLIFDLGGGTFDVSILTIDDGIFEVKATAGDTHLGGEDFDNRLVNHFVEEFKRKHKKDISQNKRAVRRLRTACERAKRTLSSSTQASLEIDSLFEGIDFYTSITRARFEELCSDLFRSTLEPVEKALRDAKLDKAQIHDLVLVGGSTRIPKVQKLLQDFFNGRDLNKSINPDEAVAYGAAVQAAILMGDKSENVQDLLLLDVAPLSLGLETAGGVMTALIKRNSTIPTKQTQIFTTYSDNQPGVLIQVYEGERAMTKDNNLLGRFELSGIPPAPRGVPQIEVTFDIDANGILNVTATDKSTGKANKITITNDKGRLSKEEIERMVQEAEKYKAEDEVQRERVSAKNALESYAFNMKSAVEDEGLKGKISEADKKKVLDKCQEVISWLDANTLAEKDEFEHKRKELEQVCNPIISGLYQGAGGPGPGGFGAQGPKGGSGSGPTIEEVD

B1: NS5A domain I (domain or fragment)
chain: SGSWLRDIWDWICEVLSDFKTWLKAKLMPQLPGIPFVSCQRGYRGVWRGDGIMHTRCHCGAEITGHVKNGTMRIVGPRTCKNMWSGTFFINAYTTGPCTPLPAPNYKFALWRVSAEEYVEIRRVGDFHYVSGMTTDNLKCPCQIPSPEFFTELDGVRLHRFAPPCKPLLREEVSFRVGLHEYPVGSQLPCEPEPDVAVLTSMLTDPSHITAEA
Question: How did the Kd turn out when B1 was run?
Answer: Its Kd is 316 nM.

Reference: article PMC4284078 (Virology, 2014)
